Changes are numbered by the printed parent chain. Each block holds one molecule with its values, some of them ahead of it. No end group written: not given here.
Experiments:
RapF^E303A [1] = biological target: T1, RapF^E303A (Bacillus subtilis, UniProt P71002, E303A); test: Gel shift (native PAGE) titration, apparent Kd, RapF^E303A; type: binding, B. subtilis
T1 construct: 6xHis (N, cleaved yes); made in house; host or cells: Escherichia coli BL21 RIL
Procedure: (§1) The formation of complexes was analyzed by native polyacrylamide gel electrophoresis (Native-PAGE), similarly to that described by Salinas et al.. Briefly, mixtures of RapF (WT and mutants), ComA (10 µM of each protein), or Phr peptides (0.5 mM), as indicated, were incubated in buffer A (200 mM NaCl, 50 mM Tris-HCl [pH 8.0]) at room temperature for 30 min, separated by Native-PAGE and visualized by Coomassie blue staining. The peptide binding constants for RapF, RapF^D194A, RapF^N227A, RapF^E303K, and RapF^E303A were calculated following the same approach. Reaction mixtures containing 20 µg of protein and peptide concentrations ranging from 50 nM to 1.2 mM in 20 µl of buffer A were incubated for 15 min at room temperature. Reactions were separated in 8% acrylamide native gel (100 V, 4°C, 2 h) and visualized by Coomassie blue staining. Free protein was quantified using the Multigauge V2.1 software (Fujifilm) and the fraction of bound protein was estimated by subtracting free protein from the input protein. Data were plotted as a fraction of the Phr bound protein versus the Phr concentration, and were analyzed by the Graphpad prism software. The midpoint of the transition was taken as the apparent Kd. To calculate the Kd values, at least three independent experiments were analyzed.

RapF^D194A [2] = biological target: T2, RapF^D194A (Bacillus subtilis, UniProt P71002, D194A); test: Gel shift (native PAGE) titration, apparent Kd, RapF^D194A; type: binding, B. subtilis
T2 construct: 6xHis (N, cleaved yes); made in house; host or cells: Escherichia coli BL21 RIL
Procedure: as §1

RapF [3] = biological target: T3, RapF (Bacillus subtilis, UniProt P71002); type: binding, B. subtilis; conditions: wild-type RapF, at 12 µM PhrF; native PAGE titration
T3 construct: 6xHis (N, cleaved yes); made in house; host or cells: Escherichia coli BL21 RIL
T3 sequence (P71002 whole entry): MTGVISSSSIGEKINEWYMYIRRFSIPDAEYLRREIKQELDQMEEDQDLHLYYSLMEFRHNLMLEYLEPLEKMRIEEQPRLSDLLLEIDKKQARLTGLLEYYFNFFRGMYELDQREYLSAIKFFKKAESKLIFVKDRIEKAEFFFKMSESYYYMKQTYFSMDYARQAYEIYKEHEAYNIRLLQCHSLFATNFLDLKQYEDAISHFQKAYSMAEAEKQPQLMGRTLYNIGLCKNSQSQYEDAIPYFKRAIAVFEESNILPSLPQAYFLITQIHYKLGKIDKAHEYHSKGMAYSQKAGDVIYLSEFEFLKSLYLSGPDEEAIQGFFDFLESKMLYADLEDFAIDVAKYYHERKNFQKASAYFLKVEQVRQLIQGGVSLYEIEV
Procedure: as §1

RapF^N227A [4] = biological target: T4, RapF^N227A (Bacillus subtilis, UniProt P71002, N227A); test: Gel shift (native PAGE) titration, apparent Kd, RapF^N227A; type: binding, B. subtilis
T4 construct: 6xHis (N, cleaved yes); made in house; host or cells: Escherichia coli BL21 RIL
T4 sequence (P71002 whole entry N227A): as the sequence (P71002 whole entry) above, with N227A counted along it
Procedure: as §1

RapF^D194A [5] = biological target: T5, RapF^D194A (B. subtilis, UniProt P71002 1-381, D194A); test: native gel or EMSA; Native-PAGE, Coomassie stained; RapF (WT or mutant) and ComA 10 µM each, Phr peptides 0.5 mM; buffer A (200 mM NaCl, 50 mM Tris-HCl pH 8.0), room temperature, 30 min; conditions: both partners purified
T5 construct: RapF of Bacillus subtilis with Asp194 changed to Ala, made from pPROEX-RapF by site-directed mutagenesis; Same construct as m1 with the point mutation; also called RapF Asp194Ala; source: E. coli BL21 RIL, purified as native RapF; not shown: His6, N-terminal, cleaved
T5 sequence: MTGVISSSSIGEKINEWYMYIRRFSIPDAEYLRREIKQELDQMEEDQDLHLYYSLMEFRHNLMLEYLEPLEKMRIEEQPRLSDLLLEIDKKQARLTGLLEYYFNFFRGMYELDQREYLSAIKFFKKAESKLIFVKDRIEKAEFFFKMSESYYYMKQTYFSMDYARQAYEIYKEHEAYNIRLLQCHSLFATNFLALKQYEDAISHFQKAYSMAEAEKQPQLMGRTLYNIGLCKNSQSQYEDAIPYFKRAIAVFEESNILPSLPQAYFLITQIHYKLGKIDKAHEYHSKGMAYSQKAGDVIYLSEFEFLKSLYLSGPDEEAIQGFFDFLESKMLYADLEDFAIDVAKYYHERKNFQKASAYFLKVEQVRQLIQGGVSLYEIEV

RapF^N227A [6] = biological target: T6, RapF^N227A (B. subtilis, UniProt P71002 1-381, N227A); test: as above; conditions: both partners purified
T6 construct: RapF of Bacillus subtilis with Asn227 changed to Ala, made from pPROEX-RapF by site-directed mutagenesis; Same construct as m1 with the point mutation; also called RapF Asn227 to Ala mutant; RapF^N277A (misprint in the text); source: E. coli BL21 RIL, purified as native RapF; not shown: His6, N-terminal, cleaved
T6 sequence: T5 sequence with A194D, N227A

RapF^E303K = biological target: T7, RapF^E303K (B. subtilis, UniProt P71002 1-381, E303K); test: as above; conditions: both partners purified
T7 construct: RapF of Bacillus subtilis with Glu303 changed to Lys, made from pPROEX-RapF by site-directed mutagenesis; Same construct as m1 with the point mutation; also called RapF Glu303Lys; source: E. coli BL21 RIL, purified as native RapF; not shown: His6, N-terminal, cleaved
T7 sequence: T5 sequence with A194D, E303K

RapF [7] = biological target: T8, RapF (B. subtilis, UniProt P71002 1-381); test: as above; conditions: both partners purified
T8 construct: RapF of Bacillus subtilis, amplified from genomic DNA and cloned in pPROEX-HTa; The text speaks of residues up to Val381, which fits the whole protein; also called wild-type RapF; native RapF; source: E. coli BL21 RIL, purified (HisTrap, TEV digestion, Superdex 200); not shown: His6, N-terminal, cleaved
T8 sequence: T5 sequence with A194D

RapF^E303A [8] = biological target: T9, RapF^E303A (B. subtilis, UniProt P71002 1-381, E303A); test: as above; conditions: both partners purified
T9 construct: RapF of Bacillus subtilis with Glu303 changed to Ala, made from pPROEX-RapF by site-directed mutagenesis; Same construct as m1 with the point mutation; also called RapF Glu303Ala; source: E. coli BL21 RIL, purified as native RapF; not shown: His6, N-terminal, cleaved
T9 sequence: T5 sequence with A194D, E303A

Molecule: ERGMT [PhrC]
Kd (RapF^E303A [1]): > 1200 µM

Molecule: QRGMI [PhrF]
Kd (RapF^D194A [2]): > 1200 µM
RapF present in the free form (RapF [3]): less than 30%
Kd (RapF^N227A [4]): > 1200 µM

binding result (RapF^D194A [5]): binds
binding result (RapF^N227A [6]): binds
binding result (RapF^E303K): binds
binding result (RapF [7]): binds
binding result (RapF^E303A [8]): binds
B1: ComA (natural protein, B. subtilis, UniProt P14204 1-214, looked up)
chain: MKKILVIDDHPAVMEGTKTILETDSNLSVDCLSPEPSEQFIKQHDFSSYDLILMDLNLGGEVNGMELSKQILQENPHCKIIVYTGYEVEDYFEEAIRAGLHGAISKTESKEKITQYIYHVLNGEILVDFAYFKQLMTQQKTKPAPSSQKEQDVLTPRECLILQEVEKGFTNQEIADALHLSKRSIEYSLTSIFNKLNVGSRTEAVLIAKSDGVL
notes: also called RR ComA; full-length ComA; source: E. coli BL21 RIL, purified (HisTrap, TEV digestion, Superdex 200); not shown: His6, N-terminal, cleaved

Reference: article PMC3601957, “Structural Basis of Rap Phosphatase Inhibition by Phr Peptides” (PLoS Biology, 2013)
